The results in this text go back to patent US6825325 (FRAUNHOFER GESELLSCHAFT ZUR FORDERUNG DER ANGEWANDTEN …, dated 2004).

The target of experiment [1] is bacterially expressed GST-protein alone (Schistosoma japonicum, UniProt P08515 1-218 = GST). As to the kind of experiment: ELISA of scFvs (member of the panel of 10).
Experiment [2] deals with T1, GST-30K fusion protein (bacterially expressed 30K TMV movement protein fused to GST) (Schistosoma japonicum; Tobacco mosaic …, UniProt P03583 1-268).
T1 construct: not shown: glutathione S-transferase, Schistosoma japonicum (Pharmacia GST-System)
T1 sequence (looked up): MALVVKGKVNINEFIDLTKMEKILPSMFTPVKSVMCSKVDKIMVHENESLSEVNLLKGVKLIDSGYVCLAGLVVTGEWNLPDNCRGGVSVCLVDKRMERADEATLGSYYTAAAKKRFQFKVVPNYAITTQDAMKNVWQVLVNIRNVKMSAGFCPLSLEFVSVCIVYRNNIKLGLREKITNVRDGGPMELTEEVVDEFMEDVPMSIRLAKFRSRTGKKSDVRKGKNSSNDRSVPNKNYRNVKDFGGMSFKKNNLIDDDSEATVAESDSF
Put plainly: ELISA of scFvs (member of the panel of 10). For orientation: ELISA stands for enzyme-linked immunosorbent assay.

bacterially expressed GST-protein alone, sequence (P08515 whole entry, the tested form may be a part): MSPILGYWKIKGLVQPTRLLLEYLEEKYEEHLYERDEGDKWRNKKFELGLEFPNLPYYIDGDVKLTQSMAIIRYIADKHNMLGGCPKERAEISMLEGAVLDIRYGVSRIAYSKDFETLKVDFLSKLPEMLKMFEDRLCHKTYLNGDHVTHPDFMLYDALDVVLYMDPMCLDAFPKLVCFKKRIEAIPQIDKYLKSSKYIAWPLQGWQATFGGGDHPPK

B1: scFv 30-2 (scFv)
scFv: EVKLQQSGAELVKPGASVKISCKASDYSFTGYNMNWVKQSHGKSLEWIGNINPYYGSTSYNQKFKGKATLTVDKSSSTAYMQLNSLTSEDSAVYYCAVGGNYVDWFAYWGQGTLVTVSSGGGGSGGGGSGGGGSDILLTQSPLSLPVSLGDHASISCRSSQSLVHSNGNTYLHWYLQNPGQSPKLLIYKVSNRFSGIPDRFSGSGSGTDFTLKISRVEAEDLGVYFCSQSTHVPYTFGGGTKLELKRAVDAAAEQKLISEEDLNGAA
notes: also called 30K specific scFv No. 2; scFv 30K-2
On to B1, for which the values for the binding result in experiment [1] and in experiment [2] were “no binding” and “binds”, respectively.
